# In article PMC8799657 (Nature Communications, 2022):
# Experiments:
# [1] = target: T1, soluble human transferrin receptor 1 (human, UniProt P02786); assay: BLI; conditions: both partners purified
# T1 construct: also called sTfR1; human sTfR1
# [2] = target: T2, human transferrin receptor 1 on the cell surface (human (endogenous in erythroblasts), UniProt P02786); conditions: one partner purified
# T2 construct: also called hTfR1; TfR1
# T2 sequence (P02786 whole entry): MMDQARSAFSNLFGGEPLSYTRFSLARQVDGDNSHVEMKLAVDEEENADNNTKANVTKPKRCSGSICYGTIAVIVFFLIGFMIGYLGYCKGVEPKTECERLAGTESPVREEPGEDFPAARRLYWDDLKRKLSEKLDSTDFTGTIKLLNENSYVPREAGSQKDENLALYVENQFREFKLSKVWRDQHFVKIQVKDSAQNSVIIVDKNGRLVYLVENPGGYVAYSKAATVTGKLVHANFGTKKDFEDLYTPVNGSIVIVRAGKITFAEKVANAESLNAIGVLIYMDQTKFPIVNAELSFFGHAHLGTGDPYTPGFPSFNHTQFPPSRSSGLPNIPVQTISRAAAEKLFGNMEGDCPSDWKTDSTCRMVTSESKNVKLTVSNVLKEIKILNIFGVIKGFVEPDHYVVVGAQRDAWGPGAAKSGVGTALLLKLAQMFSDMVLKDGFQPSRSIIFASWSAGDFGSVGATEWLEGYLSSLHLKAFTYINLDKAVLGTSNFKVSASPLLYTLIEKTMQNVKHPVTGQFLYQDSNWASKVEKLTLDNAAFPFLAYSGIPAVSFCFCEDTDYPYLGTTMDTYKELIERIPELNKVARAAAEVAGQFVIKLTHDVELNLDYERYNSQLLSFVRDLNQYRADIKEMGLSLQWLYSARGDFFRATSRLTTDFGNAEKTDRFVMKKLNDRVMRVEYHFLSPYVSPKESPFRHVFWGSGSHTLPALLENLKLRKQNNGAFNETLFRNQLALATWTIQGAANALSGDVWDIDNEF
# T1 sequence (P02786 121-760): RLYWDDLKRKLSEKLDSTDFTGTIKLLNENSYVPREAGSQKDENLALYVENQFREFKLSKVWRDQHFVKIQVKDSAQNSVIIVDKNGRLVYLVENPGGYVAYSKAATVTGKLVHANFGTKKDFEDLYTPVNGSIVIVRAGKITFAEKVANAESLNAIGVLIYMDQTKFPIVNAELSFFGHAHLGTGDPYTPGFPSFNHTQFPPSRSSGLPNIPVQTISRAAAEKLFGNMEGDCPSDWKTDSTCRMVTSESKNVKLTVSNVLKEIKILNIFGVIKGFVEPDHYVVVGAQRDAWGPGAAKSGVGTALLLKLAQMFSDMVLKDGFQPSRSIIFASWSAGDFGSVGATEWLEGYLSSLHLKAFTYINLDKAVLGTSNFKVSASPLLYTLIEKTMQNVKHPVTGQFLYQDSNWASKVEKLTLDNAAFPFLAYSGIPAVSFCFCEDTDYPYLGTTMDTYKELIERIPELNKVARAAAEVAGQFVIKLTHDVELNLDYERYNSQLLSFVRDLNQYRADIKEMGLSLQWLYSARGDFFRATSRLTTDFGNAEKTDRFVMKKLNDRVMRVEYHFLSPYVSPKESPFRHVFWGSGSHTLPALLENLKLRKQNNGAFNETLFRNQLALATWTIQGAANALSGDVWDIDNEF
Binder,binding result [1],binding result [2]
"Fab fragment of the mouse/human chimeric 128.1 IgG1 antibody (Fab, V domains shown, also called Fab ch128.1/IgG1; ch128.1 Fab) VH: EVQLQQSGPELVKPGASMKISCKASGYSFTGYTMNWVKQSHGENLEWIGRINPHNGGTDYNQKFKDKAPLTVDKSSNTAYMELLSLTSGDSAVYYCARGYYYYSLDYWGQGTSVTVSS VL: QIVLTQSPAIMSVSPGEKVTMTCSASSSIRYIHWYQQRPGTSPKRWIYDTSNLASGVPARFSGSGSGTSYSLTISSMEAEDAATYYCHQRNSYPWTFGGGTRLEIR",binds,–
"mouse/human chimeric IgG1/κ antibody ch128.1/IgG1 (antibody, V domains shown) VH: EVQLQQSGPELVKPGASMKISCKASGYSFTGYTMNWVKQSHGENLEWIGRINPHNGGTDYNQKFKDKAPLTVDKSSNTAYMELLSLTSGDSAVYYCARGYYYYSLDYWGQGTSVTVSS VL: QIVLTQSPAIMSVSPGEKVTMTCSASSSIRYIHWYQQRPGTSPKRWIYDTSNLASGVPARFSGSGSGTSYSLTISSMEAEDAATYYCHQRNSYPWTFGGGTRLEIR",–,binds
